Source: article PMC3696691, “Zinc-induced Self-association of Complement C3b and Factor H” (The Journal of Biological Chemistry, 2013)

Molecular target: T1, C3b (human, UniProt P01024 23-667; P01024 749-1663, free SH group of the C3b thioester blocked with 20 mM iodoacetamide)
T1 construct: Complement C3 beta chain, human; Complement C3b alpha' chain, human: the alpha chain without the ANA/C3a domain; here cut by trypsin; 12 domains; calculated mass 179.3 kDa; also called active C3b; source: made from C3 purified from human plasma by trypsin (1% w/w, 120 s, 37 °C), iodoacetamide added, purified on Superose 6
Assay: AUC; sedimentation velocity, 50,000 rpm, 20 °C; 1:1 mixture of 5.5 uM C3b and 5.5 uM FH incubated at 4 °C overnight; no zinc
Conditions: both partners purified

B1: complement Factor H (FH), wild-type (natural protein, human, UniProt P08603 19-1231, looked up)
chain: EDCNELPPRRNTEILTGSWSDQTYPEGTQAIYKCRPGYRSLGNVIMVCRKGEWVALNPLRKCQKRPCGHPGDTPFGTFTLTGGNVFEYGVKAVYTCNEGYQLLGEINYRECDTDGWTNDIPICEVVKCLPVTAPENGKIVSSAMEPDREYHFGQAVRFVCNSGYKIEGDEEMHCSDDGFWSKEKPKCVEISCKSPDVINGSPISQKIIYKENERFQYKCNMGYEYSERGDAVCTESGWRPLPSCEEKSCDNPYIPNGDYSPLRIKHRTGDEITYQCRNGFYPATRGNTAKCTSTGWIPAPRCTLKPCDYPDIKHGGLYHENMRRPYFPVAVGKYYSYYCDEHFETPSGSYWDHIHCTQDGWSPAVPCLRKCYFPYLENGYNQNYGRKFVQGKSIDVACHPGYALPKAQTTVTCMENGWSPTPRCIRVKTCSKSSIDIENGFISESQYTYALKEKAKYQCKLGYVTADGETSGSITCGKDGWSAQPTCIKSCDIPVFMNARTKNDFTWFKLNDTLDYECHDGYESNTGSTTGSIVCGYNGWSDLPICYERECELPKIDVHLVPDRKKDQYKVGEVLKFSCKPGFTIVGPNSVQCYHFGLSPDLPICKEQVQSCGPPPELLNGNVKEKTKEEYGHSEVVEYYCNPRFLMKGPNKIQCVDGEWTTLPVCIVEESTCGDIPELEHGWAQLSSPPYYYGDSVEFNCSESFTMIGHRSITCIHGVWTQLPQCVAIDKLKKCKSSNLIILEEHLKNKKEFDHNSNIRYRCRGKEGWIHTVCINGRWDPEVNCSMAQIQLCPPPPQIPNSHNMTTTLNYRDGEKVSVLCQENYLIQEGEEITCKDGRWQSIPLCVEKIPCSQPPQIEHGTINSSRSSQESYAHGTKLSYTCEGGFRISEENETTCYMGKWSSPPQCEGLPCKSPPEISHGVVAHMSDSYQYGEEVTYKCFEGFGIDGPAIAKCLGEKWSHPPSCIKTDCLSLPSFENAIPMGEKKDVYKAGEQVTYTCATYYKMDGASNVTCINSRWTGRPTCRDTSCVNPPTVQNAYIVSRQMSKYPSGERVRYQCRSPYEMFGDEEVMCLNGNWTEPPQCKDSTGKCGPPPPIDNGDITSFPLSVYAPASSVEYQCQNLYQLEGNKRITCRNGQWSEPPKCLHPCVISREIMENYNIALRWTAKQKLYSRTGESVEFVCKRGYRLSSRSHTLRTTCWDGKLEYPTCAKR
notes: Complement factor H, human, 20 SCR domains (SCR-1/20); Calculated mass 154.4 kDa; source: gel filtration
- stoichiometry N: 1
